Data as given in patent US20230265151A1, “GIP/GLP1 CO-AGONIST COMPOUNDS” (priority 2020, published 2023).
Where a chain is given by its changes, count along the chain named.

Legend:
human glucagon receptor = molecular target: T1, human glucagon receptor (human, UniProt P47871 26-477); test: SPA competition vs [125I]-Gcg, hGcgR membranes
T1 construct: whole, on cells; also called hGCGR; hGcgR
Experimental: The binding buffer contains 25 mM 4-(2-hydroxyethyl)-1-piperazineethanesulfonic acid (HEPES), pH 7.4, 2.5 mM CaCl₂, 1 mM MgCh, 0.1% (w/v) bacitracin (Research Products), 0.003% (w/v) Polyoxyethylenesorbitan monolaurate (TWEEN®-20), and Roche Complete™ Protease Inhibitors without EDTA. […] Plates are sealed and mixed on a plate shaker (setting 6) for 1 minute and read with a PerkinElmer Trilux MicroBeta® scintillation counter after 12 hours of incubation/settling time at room temperature.
Data are analyzed using four-parameter (curve maximum, curve minimum, IC₅₀, Hill slope) nonlinear regression routines (Genedata Screener, version 12.0.4, Genedata AG, Basal, Switzerland). […] Values for Kᵢ are reported as the geometric mean, with error expressed as the standard error of the mean (SEM) and n is equal to the number of independent replicates (determined in assays performed on different days).

human GLP-1 receptor = molecular target: T2, human GLP-1 receptor (human, UniProt P43220 24-463); test: SPA competition vs [125I]-GLP-1, hGLP-1R membranes
T2 construct: whole, on cells; also called hGLP-1R; human glucagon-like peptide-1 receptor
How it was run: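 Kᵢ values are geometric means (SEM) over replicates run on separate days, derived from IC₅₀ of four-parameter curve fits. Buffer: HEPES 25 mM pH 7.4 with CaCl₂ 2.5 mM, MgCl₂ 1 mM, bacitracin 0.1%, TWEEN-20 0.003%, EDTA-free protease inhibitors.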

human GIP receptor = molecular target: T3, human GIP receptor (human, UniProt P48546 22-466); test: SPA competition vs [125I]-GIP, hGIPR membranes
T3 construct: whole, on cells; also called hGIPR; human glucose-dependent insulinotropic polypeptide receptor
T3 sequence (looked up): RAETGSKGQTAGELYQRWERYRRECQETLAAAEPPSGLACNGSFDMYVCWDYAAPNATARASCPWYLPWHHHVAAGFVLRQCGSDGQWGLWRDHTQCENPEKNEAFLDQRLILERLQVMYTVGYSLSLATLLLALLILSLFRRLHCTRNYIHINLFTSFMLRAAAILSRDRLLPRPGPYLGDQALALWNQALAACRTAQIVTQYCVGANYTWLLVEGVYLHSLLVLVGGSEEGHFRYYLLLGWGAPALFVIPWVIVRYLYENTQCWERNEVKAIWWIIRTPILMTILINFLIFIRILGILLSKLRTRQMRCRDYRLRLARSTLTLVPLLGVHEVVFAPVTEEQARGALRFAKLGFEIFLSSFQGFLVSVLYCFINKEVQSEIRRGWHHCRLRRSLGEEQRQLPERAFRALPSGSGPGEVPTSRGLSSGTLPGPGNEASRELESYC

T1 sequence (P47871 26-477): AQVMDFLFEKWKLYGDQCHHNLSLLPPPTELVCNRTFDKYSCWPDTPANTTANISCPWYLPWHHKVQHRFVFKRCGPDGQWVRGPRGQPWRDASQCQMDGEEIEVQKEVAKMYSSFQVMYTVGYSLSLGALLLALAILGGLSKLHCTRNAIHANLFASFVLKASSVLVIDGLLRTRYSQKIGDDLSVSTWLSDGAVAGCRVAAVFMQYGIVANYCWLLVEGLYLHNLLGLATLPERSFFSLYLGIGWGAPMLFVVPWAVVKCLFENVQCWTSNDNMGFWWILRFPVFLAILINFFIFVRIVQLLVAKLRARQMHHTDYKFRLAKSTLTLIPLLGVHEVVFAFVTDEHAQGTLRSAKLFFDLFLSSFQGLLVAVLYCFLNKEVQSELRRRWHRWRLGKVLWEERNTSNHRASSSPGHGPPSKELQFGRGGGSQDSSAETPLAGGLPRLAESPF

B1: Y-Aib-EGT-αMeF(2F)-TSD-Nle-SI-αMeL-LD-Orn-K((2-[2-(2-Amino-ethoxy)-ethoxy]-acetyl)2-(γ-Glu)-CO-(CH2)12-CO2H)AQ-Aib-EFI-(D-Glu)-αMeY-LIEGGK((2-[2-(2-Amino-ethoxy … (peptide)
peptide: YXEGTXTSDXSIXLDXKAQXEFIXXLIEGGKSSGAPPPS
modifications: Aib2, αMeF(2F)6, Nle10, αMeL13, Orn16, K17(Z1), Aib20, D-Glu24, αMeY25, K31(Z1), C-term NH2; Z1=AEEA2-(γ-Glu)-CO-(CH2)12-CO2H
Ki (human glucagon receptor): 737 nM
Ki (human GLP-1 receptor): 0.872 nM
Ki (human GIP receptor): 0.11 nM

B2: Y-Aib-EGT-αMeF(2F)-TSD-4Pal-SI-αMeL-LD-Orn-K((2-[2-(2-Amino-ethoxy)-ethoxy]-acetyl)2-(γ-Glu)-(4-(4-iodophenyl)butanoyl))AQ-Aib-EFI-(D-Glu)-αMeY-LIEGGK((2-[2-(2- … (peptide)
peptide: B1 peptide
modifications: Aib2, αMeF(2F)6, 4Pal10, αMeL13, Orn16, K17(Z1), Aib20, D-Glu24, αMeY25, K31(Z1), C-term NH2; Z1=AEEA2-(γ-Glu)-(4-(4-iodophenyl)butanoyl)
Ki (human glucagon receptor): 711 nM
Ki (human GLP-1 receptor): 0.471 nM
Ki (human GIP receptor): 0.0629 nM

B3: Y-Aib-EGT-αMeF(2F)-TSD-4Pal-SI-αMeL-LD-Orn-K((2-[2-(2-Amino-ethoxy)-ethoxy]-acetyl)2-(γ-Glu)-CO-(CH2)12-CO2H)AQ-Aib-E-3,5FPhe-I-(D-Glu)-αMeY-LIEGGK((2-[2-(2-Ami … (peptide)
peptide: B1 peptide with F22X
modifications: Aib2, αMeF(2F)6, 4Pal10, αMeL13, Orn16, K17(Z1), Aib20, 3,5FPhe22, D-Glu24, αMeY25, K31(Z1), C-term NH2; Z1=AEEA2-(γ-Glu)-CO-(CH2)12-CO2H
Ki (human glucagon receptor): 4290 nM
Ki (human GLP-1 receptor): 1.05 nM
Ki (human GIP receptor): 0.121 nM

B4: Y-Aib-EGT-αMeF(2F)-TSD-4Pal-SI-αMeL-LD-Orn-K((2-[2-(2-Amino-ethoxy)-ethoxy]-acetyl)2-(γ-Glu)-CO-(CH2)12-CO2H)AQ-Aib-E-1Nal-I-(D-Glu)-αMeY-LIEGGK((2-[2-(2-Amino- … (peptide)
peptide: B1 peptide with F22X
modifications: Aib2, αMeF(2F)6, 4Pal10, αMeL13, Orn16, K17(Z1), Aib20, 1Nal22, D-Glu24, αMeY25, K31(Z1), C-term NH2; Z1=AEEA2-(γ-Glu)-CO-(CH2)12-CO2H
Ki (human glucagon receptor): 4150 nM
Ki (human GLP-1 receptor): 1.55 nM
Ki (human GIP receptor): 0.263 nM

B5: Y-Aib-EGT-αMeF(2F)-TSD-4Pal-SI-αMeL-LD-Orn-K((2-[2-(2-Amino-ethoxy)-ethoxy]-acetyl)2-(γ-Glu)-CO-(CH2)12-CO2H)AQ-Aib-EFIK((2-[2-(2-Amino-ethoxy)-ethoxy]-acetyl)2 … (peptide)
peptide: B1 peptide with X24K, K31P
modifications: Aib2, αMeF(2F)6, 4Pal10, αMeL13, Orn16, K17(Z1), Aib20, K24(Z1), αMeY25, C-term NH2; Z1=AEEA2-(γ-Glu)-CO-(CH2)12-CO2H
Ki (human glucagon receptor): 707 nM
Ki (human GLP-1 receptor): 1.4 nM
Ki (human GIP receptor): 0.054 nM

B6: Y-Aib-EGT-αMeF(2F)-TSD-4Pal-SI-αMeL-LD-Orn-IAQ-Aib-EFIK((2-[2-(2-Amino-ethoxy)-ethoxy]-acetyl)2-(γ-Glu)-CO-(CH2)12-CO2H)-αMeY-LIK((2-[2-(2-Amino-ethoxy)-ethoxy] … (peptide)
peptide: B1 peptide with K17I, X24K, E28K, K31P
modifications: Aib2, αMeF(2F)6, 4Pal10, αMeL13, Orn16, Aib20, K24(Z1), αMeY25, K28(Z1), C-term NH2; Z1=AEEA2-(γ-Glu)-CO-(CH2)12-CO2H
Ki (human glucagon receptor): 151 nM
Ki (human GLP-1 receptor): 1.67 nM
Ki (human GIP receptor): 0.12 nM

B7: Y-Aib-EGT-αMeF(2F)-TSD-4Pal-SI-αMeL-LD-Orn-IAQ-Aib-K((2-[2-(2-Amino-ethoxy)-ethoxy]-acetyl)2-(γ-Glu)-CO-(CH2)12-CO2H)FI-(D-Glu)-αMeY-LIEGGPSSGAPPPSK((2-[2-(2-Am … (peptide)
peptide: YXEGTXTSDXSIXLDXIAQXKFIXXLIEGGPSSGAPPPSK
modifications: Aib2, αMeF(2F)6, 4Pal10, αMeL13, Orn16, Aib20, K21(Z1), D-Glu24, αMeY25, K40(Z1), C-term NH2; Z1=AEEA2-(γ-Glu)-CO-(CH2)12-CO2H
Ki (human glucagon receptor): 206 nM
Ki (human GLP-1 receptor): 2.8 nM
Ki (human GIP receptor): 0.107 nM

B8: Y-Aib-EGT-αMeF(2F)-TSD-4Pal-SI-αMeL-LD-Orn-K((2-[2-(2-Amino-ethoxy)-ethoxy]-acetyl)2-(γ-Glu)-CO-(CH2)10-CH3)AQ-Aib-EFI-(D-Glu)-αMeY-LIEGGP S SGAPPP … (peptide)
peptide: B7 peptide with I17K, K21E
modifications: Aib2, αMeF(2F)6, 4Pal10, αMeL13, Orn16, K17(Z1), Aib20, D-Glu24, αMeY25, K40(Z1), C-term NH2; Z1=AEEA2-(γ-Glu)-CO-(CH2)10-CH3
Ki (human glucagon receptor): 13.9 nM
Ki (human GLP-1 receptor): 0.194 nM
Ki (human GIP receptor): 0.0291 nM

B9: Y-Aib-EGT-αMeF(2F)-TSD-4Pal-Aib-I-αMeL-LD-Orn-QAQ-Aib-EFIK((2-[2-(2-Amino-ethoxy)-ethoxy]-acetyl)2-(γ-Glu)-(10-(4-carboxyphenoxy)decanoyl))-αMeY-LIK((2-[2-(2-Am … (peptide)
peptide: YXEGTXTSDXXIXLDXQAQXEFIKXLIKGGPSSGAPPPS
modifications: Aib2, αMeF(2F)6, 4Pal10, Aib11, αMeL13, Orn16, Aib20, K24(Z1), αMeY25, K28(Z1), C-term NH2; Z1=AEEA2-(γ-Glu)-(10-(4-carboxyphenoxy)decanoyl)
Ki (human glucagon receptor): 134 nM
Ki (human GLP-1 receptor): 0.424 nM
Ki (human GIP receptor): 0.0375 nM

B10: Y-Aib-EGT-αMeF(2F)-TSD-4Pal-Aib-I-αMeL-LD-Orn-IAQ-Aib-EFIK((2-[2-(2-Amino-ethoxy)-ethoxy]-acetyl)2-(γ-Glu)-(10-(4-carboxyphenoxy)decanoyl))-αMeY-LIK((2-[2-(2-Am … (peptide)
peptide: B9 peptide with Q17I
modifications: Aib2, αMeF(2F)6, 4Pal10, Aib11, αMeL13, Orn16, Aib20, K24(Z1), αMeY25, K28(Z1), C-term NH2; Z1=AEEA2-(γ-Glu)-(10-(4-carboxyphenoxy)decanoyl)
Ki (human glucagon receptor): 44.6 nM
Ki (human GLP-1 receptor): 0.557 nM
Ki (human GIP receptor): 0.0432 nM
